For the assay, the target named is Ubc9 (human, UniProt P63279 1-158). Put plainly: pull-down.
Chain of Ubc9 (P63279 whole entry): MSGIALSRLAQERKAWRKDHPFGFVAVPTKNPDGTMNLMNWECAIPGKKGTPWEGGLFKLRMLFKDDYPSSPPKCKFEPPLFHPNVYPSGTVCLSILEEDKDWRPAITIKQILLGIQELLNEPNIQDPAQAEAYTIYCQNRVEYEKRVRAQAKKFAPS

B1: IR1-M_ΔSIM domain of RanBP2 (domain or fragment, UniProt P49792 2637-2710, looked up)
chain: ELTPTAEQKALATKLKLPPTFFCYKNRPDYVSEEEEDDEDFETAVKKLNGKLYLDGSEKCRPLEENTADNEKEC
As to B1, the binding result is reported as “binds”.

B2: IR1-M domain (internal repeat 1 and M) of RanBP2 (domain or fragment, UniProt P49792 2629-2710, looked up)
chain: DDDVLIVYELTPTAEQKALATKLKLPPTFFCYKNRPDYVSEEEEDDEDFETAVKKLNGKLYLDGSEKCRPLEENTADNEKEC
As for B2, the binding result was “binds”.
